In doi:10.1101/236612 (bioRxiv, 2017):

Columns and labels:
Experiment in all cases: co-IP
GFP-tagged TOMM20 = target: T1, GFP-tagged TOMM20 (UniProt Q15388 1-145)
T1 sequence: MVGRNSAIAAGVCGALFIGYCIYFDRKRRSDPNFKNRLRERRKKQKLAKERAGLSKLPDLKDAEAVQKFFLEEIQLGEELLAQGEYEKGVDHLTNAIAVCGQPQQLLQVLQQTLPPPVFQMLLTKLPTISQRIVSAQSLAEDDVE

GFP-tagged TOMM70 = target: T2, GFP-tagged TOMM70 (UniProt O94826 1-608)
T2 sequence: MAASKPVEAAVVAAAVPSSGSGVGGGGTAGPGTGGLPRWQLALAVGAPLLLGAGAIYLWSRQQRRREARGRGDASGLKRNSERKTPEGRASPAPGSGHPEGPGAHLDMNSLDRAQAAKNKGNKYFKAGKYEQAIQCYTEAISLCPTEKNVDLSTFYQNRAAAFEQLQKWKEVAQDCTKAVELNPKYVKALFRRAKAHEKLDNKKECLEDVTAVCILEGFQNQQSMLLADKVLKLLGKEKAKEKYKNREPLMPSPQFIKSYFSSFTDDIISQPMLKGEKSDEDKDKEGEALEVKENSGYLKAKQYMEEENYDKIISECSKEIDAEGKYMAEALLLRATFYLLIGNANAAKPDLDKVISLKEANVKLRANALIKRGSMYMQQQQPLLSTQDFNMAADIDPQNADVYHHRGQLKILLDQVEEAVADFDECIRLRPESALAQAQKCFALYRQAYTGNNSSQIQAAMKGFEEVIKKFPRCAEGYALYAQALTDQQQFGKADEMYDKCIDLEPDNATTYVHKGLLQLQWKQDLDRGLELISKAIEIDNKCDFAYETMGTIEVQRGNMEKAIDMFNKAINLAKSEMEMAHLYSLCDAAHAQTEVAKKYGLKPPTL

[1] = target: T3, GFP-tagged Prohibitin (PHB) (UniProt P35232 1-272)
T3 sequence: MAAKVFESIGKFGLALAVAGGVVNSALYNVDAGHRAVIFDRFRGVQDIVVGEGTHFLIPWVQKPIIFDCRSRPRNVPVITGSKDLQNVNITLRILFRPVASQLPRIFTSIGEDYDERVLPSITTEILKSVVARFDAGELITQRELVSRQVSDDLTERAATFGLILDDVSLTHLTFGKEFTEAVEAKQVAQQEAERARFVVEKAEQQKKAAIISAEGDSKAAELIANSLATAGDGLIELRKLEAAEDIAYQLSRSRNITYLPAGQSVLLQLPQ

Measured: fold less AURKA in the pulldown than in pulldowns of TPX2

B1: endogenous AURKA (Aurora A kinase) (enzyme)
chain: MDRSKENCISGPVKATAPVGGPKRVLVTQQFPCQNPLPVNSGQAQRVLCPSNSSQRIPLQAQKLVSSHKPVQNQKQKQLQATSVPHPVSRPLNNTQKSKQPLPSAPENNPEEELASKQKNEESKKRQWALEDFEIGRPLGKGKFGNVYLAREKQSKFILALKVLFKAQLEKAGVEHQLRREVEIQSHLRHPNILRLYGYFHDATRVYLILEYAPLGTVYRELQKLSKFDEQRTATYITELANALSYCHSKRVIHRDIKPENLLLGSAGELKIADFGWSVHAPSSRRTTLCGTLDYLPPEMIEGRMHDEKVDLWSLGVLCYEFLVGKPPFEANTYQETYKRISRVEFTFPDFVTEGARDLISRLLKHNPSQRPMLREVLEHPWITANSSKPSNCQNKESASKQS
≥ 10 fold: all assays above
